The target in assay [1] is T1, Peptide-30 (cysteine pairing not given here; also: biotinylated, site not given here).
T1 peptide: TSLICFRNVYCWNV
Nature of the assay: ELISA, Fab on captured biotin-peptide. (In general: An ELISA detects its analyte on a solid surface through an enzyme-linked reagent.)

The target of assay [2] is T2, Peptide-11 (cysteine pairing not given here; also: biotinylated (site not given here)).
T2 peptide: VDFCALYNWPVCET
Nature of the assay: ELISA: biotinylated peptide captured on neutravidin plate, Fab titrated, HRP secondary antibody.

Assay [3] addresses T3, Peptide-15 (cysteine pairing not given here; also: biotinylated (site not given here)).
T3 peptide: LDFCKLYQWPVCFT
The assay is described as above.

In assay [4] the target is T4, Peptide-16 (cysteine pairing not given here; also: biotinylated (site not given here)).
T4 peptide: IDFCLLYDWPVCAS
The assay is described as above.

In assay [5] the target is T5, Peptide-24 (cysteine pairing not given here; also: biotinylated (site not given here)).
T5 peptide: SVLFCVKNLYCWVT
Described as above.

For assay [6], the target named is T6, Peptide-19 (cysteine pairing not given here; also: biotinylated (site not given here)).
T6 peptide: PDFCQLYNWPVCAG
The assay is described as above.

The target in assay [7] is T7, Peptide-21 (cysteine pairing not given here; also: biotinylated (site not given here)).
T7 peptide: IDFCSLYQWPVCGT
The description is as above.

Assay [8] concerns the target T8, Peptide-22 (cysteine pairing not given here; also: biotinylated (site not given here)).
T8 peptide: VDFCTIYKWPVCEG
The assay is described as above.

Assay [9] has as its target T9, Human TROP2 ECD (31-274 AA), biotinylated (human, UniProt P09758 31-274, biotinylated (site not stated)).
T9 construct: captured on neutravidin plates; also called TROP2-biotin; Trop2-biotin
T9 sequence: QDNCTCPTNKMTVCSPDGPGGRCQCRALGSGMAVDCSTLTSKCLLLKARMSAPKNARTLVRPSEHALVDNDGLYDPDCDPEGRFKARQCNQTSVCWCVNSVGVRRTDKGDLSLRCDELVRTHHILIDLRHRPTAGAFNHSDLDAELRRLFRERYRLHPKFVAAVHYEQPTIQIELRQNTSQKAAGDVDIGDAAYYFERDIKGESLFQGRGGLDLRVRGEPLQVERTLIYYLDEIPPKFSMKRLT
Nature of the assay: ELISA, Fab on captured biotin-TROP2.

Assay [10] addresses T10, Peptide-44 (cysteine pairing not given here; also: biotinylated, site not given here).
T10 peptide: VEFCKQWTWFGCMT
Description: ELISA, Fab on captured biotin-peptide.

The target in assay [11] is T11, Peptide-58 (cysteine pairing not given here; also: biotinylated, site not given here).
T11 peptide: VEICKQWFYTVCLS
Nature of the assay: ELISA, Fab on captured biotin-peptide.

For assay [12], the target named is T12, Peptide-25 (cysteine pairing not given here; also: biotinylated (site not given here)).
T12 peptide: VDFCKIYSWPVCHQ
Description: ELISA, Fab on captured biotin-peptide; Table 18 peptide set (separate ELISA run).

Assay [13] addresses T12, Peptide-25. Description: ELISA, Fab on captured biotin-peptide; Table 19 peptide set (separate ELISA run).
Description: Binding was measured in a standard ELISA format. […] Bound TBDs were detected using a standard horse radish peroxidase conjugate secondary antibody. The ELISA signal was plotted versus the log-scale concentration of TBD. The concentrations of TBD required to observe half maximal binding signal (EC₅₀s) were calculated using Graphpad Prism software.
Assay [14] deals with T13, Peptide-29 (cysteine pairing not given here; also: biotinylated, site not given here).
T13 peptide: SYLVCVKNVYCWTA
Nature of the assay: ELISA: biotinylated peptide captured on neutravidin plate, Fab titrated, HRP secondary antibody.

Positions count from the first letter of the chain named. Numbers in names are those of the source. Where no end group is shown, it is not given here.

B1: TBD-1 wt (Fab, V domains shown)
VH: QVQLQQSGSELKKPGASVKVSCKASGYTFTNYGMNWVKQAPGQGLKWMGWINTYTGEPTYTDDFKGRFAFSLDTSVSTAYLQISSLKADDTAVYFCARGGFGSSYWYFDVWGQGSLVTVSS
VL: DIQLTQSPSSLSASVGDRVSITCKASQDVSIAVAWYQQKPGKAPKLLIYSASYRYTGVPDRFSGSGSGTDFTLTISSLQPEDFAVYYCQQHYITPLTFGAGTKVEIKR
notes: Fab; the heavy chain entry is VH-CH1; also called wild-type anti-TROP2 Fab (hRS7); TROP2 Fab
Turning to B1, a half-maximal response in [1] (EC50) required 9.1 nM. Besides, the binding result in assay [2], in [3], in assay [4], in assay [5], in assay [6] and in assay [7] was “binds” in each case. The binding result in assay [8] is reported as “binds”.

B2: TBD-6 (LC I93A) (Fab, V domains shown)
VH: B1 VH
VL: B1 VL with I93A
notes: Fab; also called LC I93A mutant
Consider B2, for which the concentration giving a half-maximal response (EC50) (commonly the concentration giving half of the maximal effect) in assay [9] stood at 0.3 nM.

B3: TBD-11 (HC R98A) (Fab, V domains shown)
VH: B1 VH with R98A
VL: B1 VL
notes: Fab; also called HC R98A mutant
Turning to B3, the EC50 in assay [9] stood at 3.4 nM; in assay [10], 112 nM; in assay [11] it was 10.7 nM; in assay [12] it was 1000 nM; in [13] it was 453 nM. In addition, in assay [14], the binding result is recorded as “binds”.

The record behind these values is patent US20230357429A1 (JANUX THERAPEUTICS, published 2023).
